Measurements taken from the supplement of paper PMC9170038.

What was measured:
MS2 coat protein [1] = experiment: apparent KD of MS2 coat protein; designed switch direction (-1 OFF switch, 1 ON switch): 1; higher = weaker reporter binding; details: Eterna round: R98
Method: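 RNA-MaP: designed FMN/MS2 RNA switches (84 nt design region) are transcribed on-chip within common flanks and titrated with SNAP-549-labelled MS2 coat protein (about 1-3000 nM) in 100 mM Tris pH 7.5, 80 mM KCl, 4 mM MgCl2, without or with 200 uM FMN. Median apparent KD per design; activation ratio = KD,OFF / KD,ON.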

MS2 coat protein [2] = experiment: apparent KD of MS2 coat protein, switch ON state; designed switch direction (-1 OFF switch, 1 ON switch): 1; higher = weaker reporter binding; details: FMN input: 0 or 200 uM; Eterna round: R93 (includes R88 designs)
Summary of the method: (§1)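 Designed RNA switches, transcribed on-chip from Illumina sequencing clusters, were titrated with SNAP-549-labelled MS2 coat protein from 0.7 or 1.5 nM to 3 µM in twofold steps. The solution was 100 mM Tris-HCl pH 7.5, 80 mM KCl, 4 mM MgCl2, with constant ligand or without it. Apparent KD is the median over each design's normalised cluster binding-curve fits.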

MS2 coat protein [3] = experiment: apparent KD of MS2 coat protein, switch OFF state (with FMN for OFF switches, without FMN for ON switches); designed switch direction (-1 OFF switch, 1 ON switch): 1; higher = weaker reporter binding; details: FMN input: 0 or 200 uM; Eterna round: R93 (includes R88 designs)
Summary of the method: as §1

Row | Sequence | apparent KD of MS2 coat protein (MS2 coat protein [1]; input ligand: FMN 200 uM) [nM] | apparent KD of MS2 coat protein (MS2 coat protein [1]; input ligand: none) [nM] | apparent KD of MS2 coat protein (MS2 coat protein [2]) [nM] | apparent KD of MS2 coat protein (MS2 coat protein [3]) [nM]
1 | GUAGCUAUCGCAGGAUAUCCUCAGGCGAAAGCCACAUGAGGAUCACCCAUGUAAAUAAAGAAUUUGGAGAAGGGCGAUAGCUAC [jl-sng2-2.34 Eli mod] | 24.7 | 374 | – | –
2 | GGACUCACUUGAGGAUAUCGAGUGGAUAACACUCGAGAAGGCAGGGAAACCUGAGGAUCACCCAGGUAAGAGUCCAAUAAUAAA [Same State NG1 - A3C, U17G Submission 2D] | 19.9 | 42.1 | – | –
3 | GGAGACCUCACAGGAUAUGCUGGACUUUGUCCAGCAGAAGGGUGAAAACAUGAGGAUCACCCAUGUAUGGUCUCCAAAUUUAAU [Denovo 57] | 30.4 | 632 | – | –
4 | UAGAAGUGGUGAGGAUAUGAAUACGGCUCAUUAUCCUACAUGAGGAUCACCCAUGUGGGUGGUCGUCAGAAGGCACUGCUAUCG [Edretirige] | 181 | 32.3 | – | –
5 | AAAACAUGAGGAUCACCCAUGUAUUGAACGGUUAAUAAAAGUGAGGAUAUACAAAAUUUUAUAUAGUAGAAGGCACUGGGUACA [JR_SSNG3_Sub009] | 20.8 | 21.2 | – | –
6 | ACUGUCGCGUGAGGAUAUGGUCUGCAGUGCUGACCAGAAGGCAUGUCGAUAGACAUGAGGAUCACCCAUGUGGUUAGGGCGGAA [salish99_SSNG1_R02_019] | 194 | 298 | – | –
7 | GGUUUCAGGAUAGGAUAUGGCGUGACAUGGCGGCCAGAAGGAUCCUCGGGAACAUGAGGAUCACCCAUGUGACCGUGUCGAGUC [Biveedve] | 190 | 741 | – | –
8 | UCUGCUAUCGCAGGAUAUUACAUGGGAAAGAAUACAUGAGGAUCACCCAUGUAAAAGAUCAUAAAUAAGAAGGGCGAUAGCAGA [Lame State 7 - Jieux - Same State NG 2] | 116 | 1530 | – | –
9 | GUAGCAUACCGAGGAUAUUCUCCGGAAAACCGGACAUGAGGAUCACCCAUGUGGCGAAAGCCUUGGGAGAAGGCGGAAUGCUAC [Xeinanis 75 29] | 18.6 | 34.4 | – | –
10 | AUUACAUGAGGAUCACCCAUGUACAGAACGUUUCAUUAAAGUGAGGAUAUACGAAAUUUAAAAGCGUAGAAGGCACUGGGUACA [SameState #43 NG3] | 24.2 | 27.8 | – | –
11 | GGACGUCACAUAAACAUGAGGAUCACCCAUGUCAAAAGACAUGAGGAUAUGGAUGCGAAACGCAUCCAGAAGGCAUGGACGUCC [EliMod 4 - Jieux - Same State NG 3] | 57.3 | 728 | – | –
12 | UAGAUCACCGAAGGAUAUGGGCAGAGUCCCGCUACAUGAGGAUCACCCAUGUCAGUCGGUCGUUUUCAGAAGGUCGGAAUGAUU [Zadi] | 57.1 | 19.4 | – | –
13 | AAAACAUGAGGAUCACCCAUGUAAAGAUCGGUUAAUAGAAGUGAGGAUAUACAAAAUUUUAGGUAGUAGAAGGCACAGGGUACA [JR_SSNG3_Sub046] | 31.5 | 33 | – | –
14 | AAAUAAAAUAUAGGAUAUGGAAACAUGAGGAUCACCCAUGUAUGAUAAGAUAAAUAAUGAUAUAGCCAGAAGGAUAAAAUAUAA [LRO006_SS NG 2] | 42.7 | 33 | – | –
15 | GCAUACAUUCGAGGAUAUCGGUGAACAAAUUAGCGAGAAGGCGAUAUAAUUUUUAAACUUAUUGACAUGAGGAUCACCCAUGUA [JR_SSNG1_Sub011] | 20.5 | 24.8 | – | –
16 | AAAACAUGAGGAUCACCCAUGUAAAGAUCGGUUAAUAGAAGUGAGGAUAUGCUUAAAAUAAGGUAGCAGAAGGCACUGGGUACA [JR_SSNG3_Sub040] | 27.8 | 23.4 | – | –
17 | AAUAAUUAUAGCAAGGAUAUCGGUAUAAAGACAUGAGGAUCACCCAUGUAAUAUGGUUAAAUUUACGAGAAGGUGCAGGGUGAAA [JR_SS002_Sub009] | – | – | 170 | 142
18 | AAUAUACAUGAGGAUCACCCAUGUUUUAAUAACUCAGGAUAUACAGGUGAAAACAGCAUAGUAGAAGGGAGAAAAA [SameState1 Malc#3] | – | – | 18.2 | 23.2
19 | AUAUAUAUAAGGUAGGAUAUCCAAAAGUAAACAUGAGGAUCACCCAUGUAAAGAAAGAAACAAUGGGAGAAGGACCAUAUAUAUA [77%, More Tesla, 3] | – | – | 9.5 | 24
20 | UGGAGACAUGAGGAUCACCCAUGUGAGAAGAGGCGAGGAUAUCGAAAGAAAGAAGAGAAACGAGAAGGCGCGAGUU [salish99-SS1-035] | – | – | 27.2 | 41.6

Row | Sequence | apparent KD of MS2 coat protein (MS2 coat protein [1]; input ligand: FMN 200 uM) [nM] | apparent KD of MS2 coat protein (MS2 coat protein [1]; input ligand: none) [nM] | apparent KD of MS2 coat protein (MS2 coat protein [2]) [nM] | apparent KD of MS2 coat protein (MS2 coat protein [3]) [nM]
21 | AAAUAACAUGAGGAUCACCCAUGUUGCAACGGUAGAGGAUAUGUGGGUGAAAAUAGCAUGGCAGAAGGCUAGUGUA [SameState1 Malc#28] | – | – | 172 | 110
22 | AAAAAACAUGAGGAUCACCCAUGUCAAAAGACGUGAGGAUAUGUACAGACUUCGGUCUGUACAGAAGGCACAAAAA [SS1 - 1031] | – | – | 17.2 | 40.3
23 | AAGAAAGAAACAUAGGAUAUCAAGGAUAUAACAUGAGGAUCACCCAUGUAAAUACGAAAGUAUAAUGAGAAGGAUGGAUGAUCUAC [Meechl MS2 SS2 3] | – | – | 200 | 79.5
24 | UUACGUCCCGUUUACAUGAGGAUCACCCAUGUCGAAAGACAUGAGGAUAUGCUACCUAGUUGGUAGCAGAAGGCGUGGACGUCG [salish99_SSNG3_r02_005] | 87.1 | 121 | – | –
25 | AUAAAACAUGAGGAUCACCCAUGUCAAGAGUAUUAAGGAUAUGAGCCAGGGAACUGGCGAUCAGAAGGUGAGACUC [Atxerexebe] | – | – | 160 | 46.7
26 | AACAAUCUAUCUGAGGAUAUGUGUCGAAAGACAUGAGGAUCACCCAUGUAAAAACAUGAAAAGAUACAGAAGGCAGAUAGAUUGA [SS2: 1156] | – | – | 18.1 | 29.3
27 | AAAUAAAUGACUAAGGAUAUAUCAGAAAAAACAUGAGGAUCACCCAUGUAAUAAUAAAAAGGGUGAUAGAAGGUAGUCAACAAAC [74%, More Paria 4] | – | – | 25.6 | 118
28 | AAAAACAUGGUGUAGGAUAUAUUAAUAGUCACAUGAGGAUCACCCAUGUUCAGAUAUCUGAACGAGUAGAAGGACGAUGAAAAAA [Mat - Same state - Malcolm Mod - D109] | – | – | 454 | 349
29 | GGACAUGUCGUUUACAUGAGGAUCACCCAUGUCGAUGGACAUGAGGAUAUGGAUCCGAAUCGGAUCCAGAAGGCAUGCAUGUCC [SameState #7 NG3] | 17.9 | 45.2 | – | –
30 | AAUAAGACUAGCAAGGAUAUCGAAAACGAGACAUGAGGAUCACCCAUGUAACAAGUAAAAGUAAACGAGAAGGUGCAGGGUGAAA [JR_SS002_Sub301] | – | – | 56.9 | 80
31 | GGAAAACAUGAGGAUCACCCAUGUGAAAACGUGGGAGGAUAUGCAUGGAAACCAUACUGUGCAGAAGGCCCAUGUC [EteRNA is fun!] | – | – | 17.2 | 59.4
32 | AACGAACAUGAGGAUCACCCAUGUUCCAGCAGUUGAGGAUAUGUGGGUGAAAAUAGCACGGCAGAAGGCGAGUGUA [SameState1 Malc#22] | – | – | 79.8 | 82.1
33 | AAGAAACAUGAGGAUCACCCAUGUACCCAAAAGGGAGGAUAUGCGAAAGAAAGAAAGAAAGCAGAAGGCCCAUGAA [Artaxerxes I Longhand] | – | – | 13.9 | 25.3
34 | UGGAGACAUGAGGAUCACCCAUGUGAGAAGAGGCGAGGAUAUCGAAAGAAAGAAGAGAAACGAGAAGGCGCGAGCC [salish99-SS1-048] | – | – | 36.2 | 49.9
35 | AAAUUACAUGAGGAUCACCCAUGUAACGACGUUACAGGAUAUGUGGGUGAAAAUAGCAUGACAGAAGGGUACCGUA [SameState1 Malc#38] | – | – | 78.8 | 28.4
36 | AAAGAAUGAAGGCAGGAUAUGUGAAAAAAAACAUGAGGAUCACCCAUGUAAUAAAUGGGUACAAAACAGAAGGGCCAAGAAAUAA [SS 2 Tesla 2] | – | – | 170 | 398
37 | AGAAAUAAAAGGGAGGAUAUUCAAAAAGGGACAUGAGGAUCACCCAUGUAAAAGAAAAUAAAAUGGGAGAAGGCUCAAAAUAAAG [80%, More Helter Skelter 2] | – | – | 1130 | 748
38 | AAAUAAAGGACUGAGGAUAUACCACAUGAAACAUGAGGAUCACCCAUGUAGAAAUACAAGCGGUGGUAGAAGGCAGUCCACAAAC [Same State 2.5i ( so lets mod hyphema)] | – | – | 21.2 | 20.4
39 | GGGAAGAAGAGAGAGGAUAUCCAAAGGAAAACAUGAGGAUCACCCAUGUAAAAGGUAGGAAAUUGGGAGAAGGCUCAAAAGAGAG [salish99-ss2-034] | – | – | 20.6 | 40.8
40 | GAAAAACAUGAGGAUCACCCAUGUGGAAAUAUGGAAGGAUAUACAAAGACGAGAGUCAAAGUAGAAGGUCUAAAAG [Mat - Same State 1 - Eli mod - D20] | – | – | 17.3 | 26.3
